Target: JAK2 (Homo sapiens, UniProt O60674)
Assay: SPA competition: soluble peptide/streptavidin against peptide 4-coated SPA beads for binding 3H-JAK2
Set-up: Y918N clone error corrected to Tyr
Excerpt: FIGS. 20 A and B illustrate a test of the ability of streptavidin-peptide 4 complexes to compete for binding of 3H-JAK2 to peptide 4-coated SPA beads. For A, #0 is a beads only control. In all reactions with peptide bound to beads, excess peptide 4 [SEQ ID NO:14] was bound to beads before adding soluble samples. The reaction in #1 is peptide 4 [SEQ ID NO:14] bound to beads only, no added peptide 4 [SEQ ID NO:14] or streptavidin. #2 contained soluble peptide 4/streptavidin at a ratio of 1:1. #3 contained soluble peptide 4/streptavidin at a ratio of 4:1. #4 contained 20 μM peptide 4 added as soluble peptide 4. #5 contained 20 μM streptavidin. […] For B, 0 is a beads only control. In all reactions with peptide bound to beads, excess peptide 4 was bound to beads in the presence of 1 mg/ml κ-casein (as described in Materials and Methods of Example 8) before adding soluble samples. The reaction in #1 is peptide 4 bound to beads only, no added peptide 4 or streptavidin. #2 contained peptide 1/streptavidin at a ratio of 4:1 and #3 contained peptide 4/streptavidin at a ratio of 4:1.
The assay was set up in 96-well plates (Wallac, catalog # 1450-401), Turku, Finland, using a total assay volume of 200, μl/well. Triplicate reactions were done for each data point. The buffer used in all the assays was 35 mM sodium phosphate, 150 mM NaCl, pH 8.0, 10% glycerol. Biotinylated peptides were allowed to bind to streptavidin-coated SPA beads (Amersham Life Sciences, Arlington Heights, Ill., catalog # RPNQ0006) with either less than saturating peptide or excess peptide. For 400 μg SPA beads used per reaction, there was the capacity to bind 49 pmole of biotin (given the binding capacity of 121 pmole biotin/mg bead). Under less than saturating conditions, beads and 40 pmole peptide were added to the assay plate well and incubated for one hour with gentle shaking on a Titer plate shaker (Lab-Line Instruments, Inc., Melrose Park, Ill.) at 600 rpm and not washed. Under conditions of excess peptide, beads and peptide (80 pmole of peptide per 400 μg of bead) were mixed in batch with or without 1 mg/ml K-casein added as described in Results and Discussion, incubated for one hour with rotation, washed three times with buffer and aliquotted into wells. ^3 H-JAK2 or ^3 H-NJAK2 and any other components to be tested were added and the reactions were mixed and incubated for one hour in the dark at room temperature. The plates were then read on a MicroBeta (Wallac) set to read scintillation due to tritium.
The ability of excess peptide 4 [SEQ ID NO: 14] to compete for binding of JAK2 was tested. Biotinylated peptide 4 was bound to streptavidin in solution to mimic the conditions of the peptide 4 bound to the beads. It was used at a ratio of 1:1 (peptide 4: streptavidin) and at a ratio of 4:1 to see whether having multiple peptides on one streptavidin molecule might do a better job of binding JAK2 and therefore of competing. […] This could be due to the free streptavidin pulling some of the peptide 4 [SEQ ID NO: 14] off the bead. […] Another SPA was done using peptide 4 [SEQ ID NO:14] or peptide 1 [SEQ ID NO:11] bound to streptavidin at a ratio of 4:1. […] The results are shown in panel B of FIG. 20.

Chain of JAK2 (O60674 3-1132): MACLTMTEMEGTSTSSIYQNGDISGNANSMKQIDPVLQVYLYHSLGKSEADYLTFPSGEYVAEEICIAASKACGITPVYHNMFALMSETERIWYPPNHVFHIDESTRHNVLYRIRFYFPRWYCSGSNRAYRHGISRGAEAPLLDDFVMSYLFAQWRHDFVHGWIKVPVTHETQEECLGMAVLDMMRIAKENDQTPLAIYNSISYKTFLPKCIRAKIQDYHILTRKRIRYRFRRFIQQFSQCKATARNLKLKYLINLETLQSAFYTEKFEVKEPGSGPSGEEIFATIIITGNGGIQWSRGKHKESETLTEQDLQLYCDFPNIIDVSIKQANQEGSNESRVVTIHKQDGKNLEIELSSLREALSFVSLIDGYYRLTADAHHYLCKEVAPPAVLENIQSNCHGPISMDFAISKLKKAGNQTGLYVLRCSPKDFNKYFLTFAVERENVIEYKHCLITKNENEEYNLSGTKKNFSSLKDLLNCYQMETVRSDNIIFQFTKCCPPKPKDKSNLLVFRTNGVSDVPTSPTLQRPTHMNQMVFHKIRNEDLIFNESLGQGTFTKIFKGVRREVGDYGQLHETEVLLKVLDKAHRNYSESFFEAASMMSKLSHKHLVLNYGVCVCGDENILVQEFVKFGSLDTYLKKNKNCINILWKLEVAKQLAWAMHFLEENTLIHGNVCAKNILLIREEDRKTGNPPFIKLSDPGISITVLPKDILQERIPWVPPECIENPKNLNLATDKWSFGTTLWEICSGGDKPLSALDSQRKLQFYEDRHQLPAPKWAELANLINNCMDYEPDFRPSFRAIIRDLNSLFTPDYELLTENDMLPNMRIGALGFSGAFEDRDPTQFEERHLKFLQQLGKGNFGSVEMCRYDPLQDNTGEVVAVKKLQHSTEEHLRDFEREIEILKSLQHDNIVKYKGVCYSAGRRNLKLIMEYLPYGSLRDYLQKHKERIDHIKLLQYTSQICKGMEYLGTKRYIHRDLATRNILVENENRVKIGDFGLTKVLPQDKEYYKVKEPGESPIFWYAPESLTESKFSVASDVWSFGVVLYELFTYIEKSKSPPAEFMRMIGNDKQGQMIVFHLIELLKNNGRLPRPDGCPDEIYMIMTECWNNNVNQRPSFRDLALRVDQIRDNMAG

GIYGYRLRRKWEEKIPNPSKSHLFQNGSAELWP [peptide 4, βc peptide, N-terminal truncation]
binding of JAK2 by peptide in solution (conclusion from FIG. 20): binds JAK2 very poorly
competition by peptide in solution, bound to streptavidin or not (conclusion from FIG. 20A): competes poorly
competition for binding of JAK2 (peptide/streptavidin 4:1, beads with 1 mg/ml κ-casein, FIG. 20B): does compete for binding JAK2 but very weakly
competition for binding of JAK2 (soluble peptide 4/streptavidin 1:1 and 4:1, no κ-casein, FIG. 20A): only minimal, if any, competition was seen

Reference: patent US6187552A, “Method for identifying inhibitors of JAK2/cytokine receptor binding” (Pharmacia & Upjohn Company, priority 1998, dated 2001)
